Test results from patent US20240384003A1 (PRECISION BIOLOGICS, published 2024).

Biological target: T1, CEACAM5-D2-312* (human, UniProt P06731 35-311)
T1 sequence (looked up): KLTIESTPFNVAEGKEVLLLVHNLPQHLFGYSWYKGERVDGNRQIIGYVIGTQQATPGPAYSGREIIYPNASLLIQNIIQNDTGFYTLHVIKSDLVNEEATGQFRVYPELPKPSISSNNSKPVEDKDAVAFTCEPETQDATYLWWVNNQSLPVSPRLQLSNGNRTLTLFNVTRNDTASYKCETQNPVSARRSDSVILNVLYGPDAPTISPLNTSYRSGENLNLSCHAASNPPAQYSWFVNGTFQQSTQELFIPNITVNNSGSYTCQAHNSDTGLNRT
Assay: ELISA on truncated CEACAM5 from transfected-cell supernatant
Description: Different truncated C-terminus CEACAM6 gene constructs were designed as illustrated in FIG. 13. […] Different truncated C-terminus CEACAM5 gene constructs were designed as illustrated in FIG. 15. The procedure for the expression of the truncated C-terminus constructs was the same as to the method described above. All deletions were transfected into HEK293T cells, harvest the cell pellet and/or supernatant after 48-72 hours. Supernatant binding activity was quantitated by ELISA.

- binding result: no binding
B1: NEO-201 (antibody, human IgG1, kappa, V domains shown)
VH: QVQLVQSGAEVKKPGASVKVSCKASGYTFTDYAMHWVRQAPGQRLEWMGLISTYSGDTKYNQNFQGRVTMTVDKSASTAYMELSSLRSEDTAVYYCARGDYSGSRYWFAYWGQGTLVTVSS
VL: DIQMTQSPSSLSASVGDRVTITCQASENIYGALNWYQRKPGKSPKLLIYGASNLATGMPSRFSGSGSGTDYTFTISSLQPEDIATYYCQQVLSSPYTFGGGTKLEIKR
notes: also called H16C3-Abb*
